Results as given in patent publication US20200055939A1 (Genentech, published 2020).
Substitutions are numbered along the chain they refer to. Blank lines part the entries; values can stand above or below the binder they belong to.

What was measured:
[1] = biological target: MICA*004 on HCC1534 cells (human, UniProt Q29983 24-383); assay: cell-based or functional assay
[2] = biological target: T1, MICA*008 on MEL-JUSO cells (human, UniProt Q29983 24-317); assay: cell-based or functional assay
T1 chain: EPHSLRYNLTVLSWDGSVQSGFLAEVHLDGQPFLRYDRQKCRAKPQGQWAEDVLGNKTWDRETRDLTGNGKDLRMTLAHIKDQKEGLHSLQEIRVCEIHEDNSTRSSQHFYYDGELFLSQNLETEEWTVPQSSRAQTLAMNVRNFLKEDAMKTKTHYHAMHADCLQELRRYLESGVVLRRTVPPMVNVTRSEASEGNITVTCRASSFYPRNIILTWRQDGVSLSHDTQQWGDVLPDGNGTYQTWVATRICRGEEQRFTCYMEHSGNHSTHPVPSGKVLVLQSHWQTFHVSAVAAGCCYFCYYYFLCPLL

[3] = biological target: T2, MICA.008.a3.T204-S297.C-terminal insert of N298.G299.S300.mIgG2a.Glyco17 (human; mouse, UniProt Q29983 204-297, engineered N-linked glycosylation site at inserted N298); assay: ELISA, coated variant;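 further: ELISA with plates coated at 2 ug/ml with MICA*008 alpha 3 glycosylation variants as murine IgG2a Fc fusions, antibody binding detected by HRP anti-human IgG Fc and TMB absorbance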
T2 construct: not shown: murine IgG2a Fc
T2 chain: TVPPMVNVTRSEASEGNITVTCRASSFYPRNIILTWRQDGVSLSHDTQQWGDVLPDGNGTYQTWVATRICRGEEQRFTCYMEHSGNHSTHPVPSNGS

[4] = biological target: T3, MICA.008.a3.R202-S297.R202N mIgG2a.Glyco11 (human; mouse, UniProt Q29983 203-297, engineered N-linked glycosylation site R202N); assay: ELISA, coated variant;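 further: ELISA with plates coated at 2 ug/ml with MICA*008 alpha 3 glycosylation variants as murine IgG2a Fc fusions, antibody binding detected by HRP anti-human IgG Fc and TMB absorbance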
T3 construct: not shown: murine IgG2a Fc
T3 chain: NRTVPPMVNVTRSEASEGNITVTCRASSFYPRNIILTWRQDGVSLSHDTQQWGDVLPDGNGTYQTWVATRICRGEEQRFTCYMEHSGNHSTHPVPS

[5] = biological target: T4, MICA.008.a3.T204-S297.H248N.mIgG2a.Glyco15 (human; mouse, UniProt Q29983 204-297, engineered N-linked glycosylation site H248N); assay: ELISA, coated variant;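 further: ELISA with plates coated at 2 ug/ml with MICA*008 alpha 3 glycosylation variants as murine IgG2a Fc fusions, antibody binding detected by HRP anti-human IgG Fc and TMB absorbance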
T4 construct: not shown: murine IgG2a Fc
T4 chain: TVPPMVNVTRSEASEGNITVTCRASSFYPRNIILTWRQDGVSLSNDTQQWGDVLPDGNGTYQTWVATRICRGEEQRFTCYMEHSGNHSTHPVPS

[6] = biological target: T5, MICA.008.a3.T204-S297.E215N.mIgG2a.Glyco12 (human; mouse, UniProt Q29983 204-297, engineered N-linked glycosylation site E215N); assay: ELISA, coated variant;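 further: ELISA with plates coated at 2 ug/ml with MICA*008 alpha 3 glycosylation variants as murine IgG2a Fc fusions, antibody binding detected by HRP anti-human IgG Fc and TMB absorbance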
T5 construct: not shown: murine IgG2a Fc
T5 chain: T4 chain with E12N, N45H

[7] = biological target: T6, MICA.008.a3.T204-S297.I236T.mIgG2a.Glyco13 (human; mouse, UniProt Q29983 204-297, engineered N-linked glycosylation site created by I236T); assay: ELISA, coated variant
T6 construct: not shown: murine IgG2a Fc
T6 chain: T4 chain with I33T, N45H

[8] = biological target: T7, MICB005.His (human MICB*005 alpha 3 domain, His tagged) (human); assay: SPR, antibody captured;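 further: SPR with antibody held by surface-bound anti-Fc while His-tagged alpha three domains flow over, Kd derived by fitting a one-to-one binding model to sensograms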
T7 construct: also called huMICB*005 alpha 3-his
T7 chain: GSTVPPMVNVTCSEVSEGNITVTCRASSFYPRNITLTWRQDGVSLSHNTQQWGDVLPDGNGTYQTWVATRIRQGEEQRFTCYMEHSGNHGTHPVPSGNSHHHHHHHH

[9] = biological target: T8, MICA004.His (human MICA*004 alpha 3 domain, His tagged) (human); assay: SPR, antibody captured;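 further: SPR with antibody held by surface-bound anti-Fc while His-tagged alpha three domains flow over, Kd derived by fitting a one-to-one binding model to sensograms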
T8 construct: also called huMICA*004 alpha 3-his
T8 chain: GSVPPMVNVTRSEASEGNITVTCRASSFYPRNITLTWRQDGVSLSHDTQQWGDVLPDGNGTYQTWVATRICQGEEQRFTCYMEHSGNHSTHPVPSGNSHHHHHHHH

[10] = biological target: T9, MICA002.His (human MICA*002 alpha 3 domain, His tagged) (human); assay: SPR, antibody captured;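 further: SPR with antibody held by surface-bound anti-Fc while His-tagged alpha three domains flow over, Kd derived by fitting a one-to-one binding model to sensograms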
T9 construct: also called huMICA*002 alpha 3-his
T9 chain: T7 chain with C12R, V15A, S28G, R32W, T37S, N48D, R72C, G90S

[11] = biological target: T10, MICA008.His (human MICA*008 alpha 3 domain, His tagged) (human); assay: SPR, antibody captured;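 further: SPR with antibody held by surface-bound anti-Fc while His-tagged alpha three domains flow over, Kd derived by fitting a one-to-one binding model to sensograms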
T10 construct: Also used for FPOP (expressed in CHO); also called huMICA*008 alpha 3-his; MICA*008 a3
T10 chain: T7 chain with C12R, V15A, T35I, N48D, R72C, Q73R, G90S

[12] = biological target: MICB*005 on HCC1534 cells (human); assay: cell-based or functional assay
[13] = biological target: T11, MICA*008 on MEL-JUSO cells (human, UniProt Q29983 24-317); assay: cell-based or functional assay
T11 chain: T1 chain

[14] = biological target: MICA*004 on HCC1534 cells (human, UniProt Q29983 24-383); assay: cell-based or functional assay; remark: listed apart in the source
huMICA*008 alpha 3-his = biological target: T12, huMICA*008 alpha 3-his (human); assay: SPR, Biacore 8K, antibody on Protein A chip
T12 construct: whole construct entry: GS, alpha 3 domain (Thr204-Ser297), GNS, His8; also the construct of the FPOP experiment; also called MICA008.His; MICA*008 alpha3 construct
T12 chain: T7 chain with C12R, V15A, T35I, N48D, R72C, Q73R, G90S

huMICA*004 alpha 3-his = biological target: T13, huMICA*004 alpha 3-his (human); assay: SPR, Biacore 8K, antibody on Protein A chip
T13 construct: whole construct entry: GS, alpha 3 domain, GNS, His8; also called MICA004.His; MICA*004 alpha3 construct
T13 chain: T8 chain

huMICB*005 alpha 3-his = biological target: T14, huMICB*005 alpha 3-his (human); assay: SPR, Biacore 8K, antibody on Protein A chip
T14 construct: whole construct entry: GS, alpha 3 domain, GNS, His8; also called MICB005.His; MICB*005 alpha3 construct
T14 chain: T7 chain

huMICA*002 alpha 3-his = biological target: T15, huMICA*002 alpha 3-his (human); assay: SPR, Biacore 8K, antibody on Protein A chip
T15 construct: whole construct entry: GS, alpha 3 domain, GNS, His8; also called MICA002.His; MICA*002 alpha3 construct
T15 chain: T7 chain with C12R, V15A, S28G, R32W, T37S, N48D, R72C, G90S
Wherever % Inhibition is given: test concentration or dose not given here.

- % max inhibition of shedding [1]: 55%
- EC50 of shedding inhibition [1]: 0.309 mg/L
- % max inhibition of shedding [2]: 70%
- EC50 of shedding inhibition [2]: 0.265 mg/L
- binding result [3]: binds
- binding result [4]: binds
- binding result [5]: binds
- binding result [6]: binds
- binding result [7]: binds
- Kd [8]: 6.8 nM
- Kd [9]: 5 nM
- Kd [10]: 7.7 nM
- Kd [11]: 2.5 nM
B1: 3E11 (antibody, V domains shown)
VH: EIQLQQSGPELVKPGASVKVSCTASGYAFTKYNIYWVKQSHGKSLEWIGYIDPYTGGTISNQKFTGRATLTVDKSSSTAYLHLNSLTSEDSAVYYCARPGSYWYFGVWGAGTTVTVSS
VL: DILMTQTPLSLPVSLGDQASISCRSSQSIVYTNGNTNLEWYLQKPGQSPKLLIYKVSNRFSGVPDRFSGSGSGTDFTLKISRVEAEDLGVYYCFQASYVPFTFGSGTKVEIK
notes: Mouse hybridoma antibody; constant regions differ by assay

- % Inhibition [12]: 58%
- % Inhibition [13]: 31%
- % Inhibition [14]: 34%
- Kd (huMICA*008 alpha 3-his): 3.72 nM
- Kd (huMICA*004 alpha 3-his): 3.95 nM
- Kd (huMICB*005 alpha 3-his): 2.96 nM
- Kd (huMICA*002 alpha 3-his): 1.49 nM
B2: 6E1.1.12 (antibody, V domains shown)
VH: QGQMQQSGAELVKPGASVKLSCKTSGFTFSDNYISWLKQKPGQSLEWIAWIYAGTGGSSYNQKFRDKAQLTVDTSSRTAYMQLSSLTTEDSAIYYCARHDYYGTSGAWFAYWGRGTLVTVSA
VL: B1 VL with I2V, S28H, Y31H, T32S, G34E, N37Y, A96G, Y98H, F101W, S105G
notes: mouse variable domains

- % max inhibition of shedding [1]: 24%
- EC50 of shedding inhibition [1]: 50 mg/L
- % max inhibition of shedding [2]: < 10%
- Kd [8]: 45 nM
B3: 3C9.10 (antibody, V domains shown)
VH: QVQLKESGPGLVAPSQSLSITCTVSGFSLTGSGVNWVRQPPGKGLEWLGMIWGDGNTDYNSALKSRLSISKDNSKSQIFLKMNSLQTDDTARYYCARGAYYGKRWYFDVWGAGTTVTVSS
VL: DIQMTQTTSSLSASLGDRVTISCSASQGISNYLNWYQQKPDGTVKLLIYYTSSLHSGVPSRFSGSGSGTDYSLTISNLEPEDIATYYCQQYSKLPPTFGGGTKVEIK
notes: Mouse hybridoma antibody; constant regions differ by assay (hybridoma mouse IgG, recombinant human IgG1 or mouse IgG2a)

- % max inhibition of shedding [1]: 44%
- EC50 of shedding inhibition [1]: 3.18 mg/L
- % max inhibition of shedding [2]: < 10%
- Kd [8]: 11 nM
B4: 9C9.5.6 (antibody, V domains shown)
VH: B3 VH with T30N, S32Q, N56S, K75R, I78V, Y100H
VL: B3 VL with G28N, S30N, D41H, H55P, T85S
notes: as for B1

- % max inhibition of shedding [1]: 70%
- EC50 of shedding inhibition [1]: 0.251 mg/L
- % max inhibition of shedding [2]: 47.5%
- EC50 of shedding inhibition [2]: 0.163 mg/L
- binding result [3]: binds
- binding result [4]: binds
- binding result [5]: binds
- binding result [6]: binds
- binding result [7]: binds
- Kd [8]: 14.5 nM
- Kd [9]: 6.2 nM
- Kd [10]: 2.4 nM
- Kd [11]: 8.4 nM
B5: 6F8.7 (antibody, V domains shown)
VH: DVQLQGSGPGLVKPSQSLSLTCSVTGYSITNDYYWNWIRQFPGNKLEWMGFISFGGSNNYNPSLKNRISITRDTSKNQFFLKLSSVTTEDTATYYCARYDGRGAWFAYWAQGTLVTVSA
VL: DIQMTQSPASLSASVGETVTITCRASGNIHNYLAWYQQKQGKSPQLLVYDAITLADGVPSRFSGSGSGTQYSLKINSLQPEDFGNYYCQHFWSFPLTFGAGTKVEIK
notes: as for B1

- % max inhibition of shedding [1]: 63%
- EC50 of shedding inhibition [1]: 0.185 mg/L
- % max inhibition of shedding [2]: 26%
- binding result [3]: binds
- binding result [4]: binds
- binding result [5]: binds
- binding result [6]: binds
- binding result [7]: binds
- Kd [8]: 20 nM
- Kd [9]: 8.9 nM
- Kd [10]: 3.5 nM
- Kd [11]: 10 nM
B6: 7D4.6 (antibody, V domains shown)
VH: DVQLQESGPGLVKPSQSLSLTCTVTGYSITSDYAWNWIRQFPRNKLEWMGYINYSGTTNYNPSLKSRISITRDTSKNQFFLQLISVTTEDTATYYCSYYRYDGAWFPYWGQGTLVTVSA
VL: B5 VL with D50N, T53M, G64A, N85S
notes: as for B1
